This note sets out measurements from article PMC5503505 (Nature structural & molecular biology, 2017).

Sequences and labels used below:
B1: Cdt1 (natural protein)
chain: MSGTANSRRKEVLRVPVIDLNRVSDEEQLLPVVRAILLQHDTFLLKNYANKAVLDALLAGLTTKDLPDTSQGFDANFTGTLPLEDDVWLEQYIFDTDPQLRFDRKCRNESLCSIYSRLFKLGLFFAQLCVKSVVSSAELQDCISTSHYATKLTRYFNDNGSTHDGADAGATVLPTGDDFQYLFERDYVTFLPTGVLTIFPCAKAIRYKPSTMATTDNSWVSIDEPDCLLFHTGTLLARWSQGMHTTSPLQIDPRANIVSLTIWPPLTTPISSKGEGTIANHLLEQQIKAFPKVAQQYYPRELSILRLQDAMKFVKELFTVCETVLSLNALSRSTGVPPELHVLLPQISSMMKRKIVQDDILKLLTIWSDAYVVELNSRGELTMNLPKRDNLTTLTNKSRTLAFVERAESWYQQVIASKDEIMTDVPAFKINKRRSSSNSKTVLSSKVQTKSSNANALNNSRYLANSKENFMYKEKMPDSQANLMDRLRERERRSAALLSQRQKRYQQFLAMKMTQVFDILFSLTRGQPYTETYLSSLIVDSLQDSNNPIGTKEASEILAGLQGILPMDISVHQVDGGLKVYRWNSLDKNRFSKLLQIHKSKQQD
B4: Orc1 (natural protein)
chain: MAKTLKDLQGWEIITTDEQGNIIDGGQKRLRRRGAKTEHYLKRSSDGIKLGRGDSVVMHNEAAGTYSVYMIQELRLNTLNNVVELWALTYLRWFEVNPLAHYRQFNPDANILNRPLNYYNKLFSETANKNELYLTAELAELQLFNFIRVANVMDGSKWEVLKGNVDPERDFTVRYICEPTGEKFVDINIEDVKAYIKKVEPREAQEYLKDLTLPSKKKEIKRGPQKKDKATQTAQISDAETRATDITDNEDGNEDESSDYESPSDIDVSEDMDSGEISADELEEEEDEEEDEDEEEKEARHTNSPRKRGRKIKLGKDDIDASVQPPPKKRGRKPKDPSKPRQMLLISSCRANNTPVIRKFTKKNVARAKKKYTPFSKRFKSIAAIPDLTSLPEFYGNSSELMASRFENKLKTTQKHQIVETIFSKVKKQLNSSYVKEEILKSANFQDYLPARENEFASIYLSAYSAIESDSATTIYVAGTPGVGKTLTVREVVKELLSSSAQREIPDFLYVEINGLKMVKPTDCYETLWNKVSGERLTWAASMESLEFYFKRVPKNKKKTIVVLLDELDAMVTKSQDIMYNFFNWTTYENAKLIVIAVANTMDLPERQLGNKITSRIGFTRIMFTGYTHEELKNIIDLRLKGLNDSFFYVDTKTGNAILIDAAGNDTTVKQTLPEDVRKVRLRMSADAIEIASRKVASVSGDARRALKVCKRAAEIAEKHYMAKHGYGYDGKTVIEDENEEQIYDDEDKDLIESNKAKDDNDDDDDNDGVQTVHITHVMKALNETLNSHVITFMTRLSFTAKLFIYALLNLMKKNGSQEQELGDIVDEIKLLIEVNGSNKFVMEIAKTLFQQGSDNISEQLRIISWDFVLNQLLDAGILFKQTMKNDRICCVKLNISVEEAKRAMNEDETLRNL

What all share (test): cryo-EM structure
One assay deals with Mcm6 (S. cerevisiae, UniProt P53091 1-1017).
Sequence of Mcm6 (P53091 whole entry): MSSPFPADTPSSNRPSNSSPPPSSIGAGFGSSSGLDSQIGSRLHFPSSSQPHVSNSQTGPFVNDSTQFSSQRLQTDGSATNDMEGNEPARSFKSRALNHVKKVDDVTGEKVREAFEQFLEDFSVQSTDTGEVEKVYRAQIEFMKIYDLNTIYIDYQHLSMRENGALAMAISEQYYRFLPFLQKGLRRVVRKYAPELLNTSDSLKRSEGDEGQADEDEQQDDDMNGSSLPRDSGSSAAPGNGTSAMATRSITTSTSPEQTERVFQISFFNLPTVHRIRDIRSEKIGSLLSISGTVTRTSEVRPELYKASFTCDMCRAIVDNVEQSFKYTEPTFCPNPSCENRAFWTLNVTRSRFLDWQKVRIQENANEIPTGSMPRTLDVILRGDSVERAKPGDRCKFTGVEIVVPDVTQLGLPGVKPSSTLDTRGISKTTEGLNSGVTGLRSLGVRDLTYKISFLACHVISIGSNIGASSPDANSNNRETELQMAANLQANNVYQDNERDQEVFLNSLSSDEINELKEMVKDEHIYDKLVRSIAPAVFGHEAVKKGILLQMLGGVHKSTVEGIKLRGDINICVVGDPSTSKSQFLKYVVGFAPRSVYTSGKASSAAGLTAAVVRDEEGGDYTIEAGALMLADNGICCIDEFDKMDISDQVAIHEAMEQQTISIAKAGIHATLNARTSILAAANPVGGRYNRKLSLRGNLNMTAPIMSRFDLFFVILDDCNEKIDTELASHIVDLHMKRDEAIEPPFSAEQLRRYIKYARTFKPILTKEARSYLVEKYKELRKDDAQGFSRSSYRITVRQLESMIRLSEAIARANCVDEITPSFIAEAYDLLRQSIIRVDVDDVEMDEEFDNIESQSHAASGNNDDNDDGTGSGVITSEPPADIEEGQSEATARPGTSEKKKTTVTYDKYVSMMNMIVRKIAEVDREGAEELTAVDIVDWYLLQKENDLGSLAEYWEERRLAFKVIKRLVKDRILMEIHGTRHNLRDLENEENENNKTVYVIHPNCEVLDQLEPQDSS
The target of the next assay is Mcm3 (S. cerevisiae, UniProt P24279 1-971).
Sequence of Mcm3 (P24279 whole entry): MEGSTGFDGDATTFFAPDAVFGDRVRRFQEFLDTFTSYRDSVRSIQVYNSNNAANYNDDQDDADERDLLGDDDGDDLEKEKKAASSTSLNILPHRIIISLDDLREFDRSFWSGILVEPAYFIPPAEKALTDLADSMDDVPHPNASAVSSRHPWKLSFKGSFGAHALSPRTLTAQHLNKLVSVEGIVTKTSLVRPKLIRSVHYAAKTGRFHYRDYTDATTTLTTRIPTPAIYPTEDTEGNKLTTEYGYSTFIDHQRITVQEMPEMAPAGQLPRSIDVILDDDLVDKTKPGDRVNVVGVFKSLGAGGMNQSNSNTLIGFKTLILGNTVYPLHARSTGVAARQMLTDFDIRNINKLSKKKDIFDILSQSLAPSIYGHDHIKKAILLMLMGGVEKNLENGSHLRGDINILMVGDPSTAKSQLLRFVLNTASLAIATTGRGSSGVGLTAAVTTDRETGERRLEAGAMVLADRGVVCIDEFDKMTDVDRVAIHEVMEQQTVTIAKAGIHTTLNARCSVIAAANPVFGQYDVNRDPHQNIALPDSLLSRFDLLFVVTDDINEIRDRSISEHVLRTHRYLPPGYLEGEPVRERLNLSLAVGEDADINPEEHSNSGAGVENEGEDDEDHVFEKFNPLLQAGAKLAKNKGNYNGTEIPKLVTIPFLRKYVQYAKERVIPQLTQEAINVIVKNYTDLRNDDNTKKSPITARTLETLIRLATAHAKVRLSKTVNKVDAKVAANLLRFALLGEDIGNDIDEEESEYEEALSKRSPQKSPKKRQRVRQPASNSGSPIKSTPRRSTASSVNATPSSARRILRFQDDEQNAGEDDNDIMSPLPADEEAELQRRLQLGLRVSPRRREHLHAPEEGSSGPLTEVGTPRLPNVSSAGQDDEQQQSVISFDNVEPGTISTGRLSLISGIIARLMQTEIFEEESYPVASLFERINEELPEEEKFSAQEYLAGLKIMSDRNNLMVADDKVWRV
The next assay deals with T1, Mcm4 (S. cerevisiae, UniProt P30665 1-933).
T1 sequence: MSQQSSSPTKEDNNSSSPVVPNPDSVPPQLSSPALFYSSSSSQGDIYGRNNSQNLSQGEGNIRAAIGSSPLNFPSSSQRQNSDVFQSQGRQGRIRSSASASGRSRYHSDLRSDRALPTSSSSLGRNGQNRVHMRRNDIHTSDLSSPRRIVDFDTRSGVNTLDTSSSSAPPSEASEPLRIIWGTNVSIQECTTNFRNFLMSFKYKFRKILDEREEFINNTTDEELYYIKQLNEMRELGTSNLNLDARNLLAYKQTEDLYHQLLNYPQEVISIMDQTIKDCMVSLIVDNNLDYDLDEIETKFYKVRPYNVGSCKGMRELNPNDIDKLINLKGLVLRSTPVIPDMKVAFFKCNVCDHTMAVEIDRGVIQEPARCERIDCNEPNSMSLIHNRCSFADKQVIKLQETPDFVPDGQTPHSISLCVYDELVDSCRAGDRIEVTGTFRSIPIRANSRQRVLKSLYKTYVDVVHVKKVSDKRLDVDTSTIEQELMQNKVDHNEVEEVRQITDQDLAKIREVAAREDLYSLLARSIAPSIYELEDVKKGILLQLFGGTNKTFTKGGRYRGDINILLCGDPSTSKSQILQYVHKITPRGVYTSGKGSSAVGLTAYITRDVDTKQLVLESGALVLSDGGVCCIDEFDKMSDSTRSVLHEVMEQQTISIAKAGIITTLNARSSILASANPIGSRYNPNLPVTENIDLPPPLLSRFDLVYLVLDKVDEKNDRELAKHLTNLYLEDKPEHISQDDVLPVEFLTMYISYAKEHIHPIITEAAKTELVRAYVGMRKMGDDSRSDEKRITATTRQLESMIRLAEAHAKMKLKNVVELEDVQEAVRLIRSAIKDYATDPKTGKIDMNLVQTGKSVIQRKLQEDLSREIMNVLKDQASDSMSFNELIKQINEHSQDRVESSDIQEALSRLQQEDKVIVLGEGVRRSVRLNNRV

The target in the assay “Cdt1” is B1.
The assay “Orc1” has as its target B4.

As for B1, the binding result with Mcm6 is listed as “binds”.

B2: Mcm7 (natural protein)
chain: MSAALPSIQLPVDYNNLFNEITDFLVTFKQDTLSSDATRNENEDENLDAENIEQHLLEKGPKYMAMLQKVANRELNSVIIDLDDILQYQNEKFLQGTQADDLVSAIQQNANHFTELFCRAIDNNMPLPTKEIDYKDDVLDVILNQRRLRNERMLSDRTNEIRSENLMDTTMDPPSSMNDALREVVEDETELFPPNLTRRYFLYFKPLSQNCARRYRKKAISSKPLSVRQIKGDFLGQLITVRGIITRVSDVKPAVEVIAYTCDQCGYEVFQEVNSRTFTPLSECTSEECSQNQTKGQLFMSTRASKFSAFQECKIQELSQQVPVGHIPRSLNIHVNGTLVRSLSPGDIVDVTGIFLPAPYTGFKALKAGLLTETYLEAQFVRQHKKKFASFSLTSDVEERVMELITSGDVYNRLAKSIAPEIYGNLDVKKALLLLLVGGVDKRVGDGMKIRGDINVCLMGDPGVAKSQLLKAICKISPRGVYTTGKGSSGVGLTAAVMKDPVTDEMILEGGALVLADNGICCIDEFDKMDESDRTAIHEVMEQQTISISKAGINTTLNARTSILAAANPLYGRYNPRLSPLDNINLPAALLSRFDILFLMLDIPSRDDDEKLAEHVTYVHMHNKQPDLDFTPVEPSKMREYIAYAKTKRPVMSEAVNDYVVQAYIRLRQDSKREMDSKFSFGQATPRTLLGIIRLSQALAKLRLADMVDIDDVEEALRLVRVSKESLYQETNKSKEDESPTTKIFTIIKKMLQETGKNTLSYENIVKTVRLRGFTMLQLSNCIQEYSYLNVWHLINEGNTLKFVDDGTMDTDQEDSLVSTPKLAPQTTASANVSAQDSDIDLQDA
As to B2, the binding result in the assay with Mcm3 and with Mcm4 was “binds” in each case.

B3: Orc4 (natural protein)
chain: MTISEARLSPQVNLLPIKRHSNEEVEETAAILKKRTIDNEKCKDSDPGFGSLQRRLLQQLYGTLPTDEKIIFTYLQDCQQEIDRIIKQSIIQKESHSVILVGPRQSYKTYLLDYELSLLQQSYKEQFITIRLNGFIHSEQTAINGIATQLEQQLQKIHGSEEKIDDTSLETISSGSLTEVFEKILLLLDSTTKTRNEDSGEVDRESITKITVVFIFDEIDTFAGPVRQTLLYNLFDMVEHSRVPVCIFGCTTKLNILEYLEKRVKSRFSQRVIYMPQIQNLDDMVDAVRNLLTVRSEISPWVSQWNETLEKELSDPRSNLNRHIRMNFETFRSLPTLKNSIIPLVATSKNFGSLCTAIKSCSFLDIYNKNQLSNNLTGRLQSLSDLELAILISAARVALRAKDGSFNFNLAYAEYEKMIKAINSRIPTVAPTTNVGTGQSTFSIDNTIKLWLKKDVKNVWENLVQLDFFTEKSAVGLRDNATAAFYASNYQFQGTMIPFDLRSYQMQIILQELRRIIPKSNMYYSWTQL
With B3, the binding result with Cdt1, in the assay with Orc1 and with Mcm6 was “binds” each time. For B4, the binding result with Mcm4 was “binds”.
